Laboratory results reported in paper PMC6158489.
pKd: −log10 of the molar value. Values joined by “and” are separate entries in the source; they are usually repeats but may differ in a detail not shown here. Identical values can stand only once.

System: VpsR (Vibrio cholerae)
Assay: EMSA

PvpsL promoter fragment (-97 to +113)
pKd: 5.65 and 5.78
